Assay results as given in the DeepSol protein solubility set.

assay: soluble on expression in E. coli; label from the status in PepcDB or PDB records

Soluble on expression in E. coli, not soluble:
MGSDKIHHHHHHMQSQELERIARQIRLRDVQAVFEAGAGHVGGEMSAIDIMTALYFRVLRIWPNDPKNPARDRFVLSKGHTACALYVTLAKRGFIPEEEISTFLQPNSRLNGHPNCNKVPGVETNTGPLGHGLPVAVGMATAAKLSGEDYHTYVMTGDGEMQEGSNWEAIMSAAQFKLNNLTLVIDHNRFQQGAAIADTNDVAPLRPKLEAFGWEVTEINGNAMAEVVPALEHRGNRPHCIVAHTNKGHGISFMQDRVDWHHKVPSKEQYEIAVKELSEAL, MGSDKIHHHHHHMQWTEEQLPAIHSFAKKLLVQAFAGTGKTTTLVGYATHNSSVKMLYLCYNKAVEIAAKNRFPRNVTCKTAHGLAYAVYGSQYKHKQAGNLRLTDIARTINTQDWELAKDIVSTLNAFMASKDLELLEDHFVRFQSNRTLTSVQQQYMSKALNLTRDVWDKMVDIQDRSVSMTHDGYLKLYQMSQPDLSQRFGAILLDEGQDVNPVIANLVQIQKITQVTVGDRHQQLYRFRGAVDALNSPAMKDAEKHFLTQSFRFGPAVAYVANVILSFKGEKIPLQGLGQPTLVKRALPEDLPHRTYLHRTVSGVIENALRLVNQDHRMQWIGGIDSYSLRDLEDLFYFSRHMNDQVQQRKLLTDYADYDQYVVIAKATQDPEMLRSIKMIENYPDLPKRIEQLRGASVTSELDATVTLSTAHRAKGLEWDFVGLYDDFSADPLSPDIDAGKRDDELNLLYVAVTRAMKILAVNSLVIDIMQRFKDMKQRSRP, MGSDKIHHHHHHMQYTELVPGTLIRRYKRFLADVALASGDVVVAHCPNTGSMRAVDVPGCRVWLSPSRNPARKLAWTWELIELPMPDAPPALVSVHTGRANALVAQALQEARIPELAGYDTHKREVRVADARLDFRLSTAHAAAYVEVKQVTLREHDGHGYFPDSVSERGRRHLEALAARVAEGDRAVLLFCVAHTGIDAVAPAAHLDPAYAETLRRVAAQGVEVLAYGMSATWTHDGVPGDIALTRALPVSLERRLASATPLSD, MGSDKIHHHHHHMRAVTAQAITEAVAKLCKEACYYVTPDMYAAFKKAEETEVSPLGKHILGRIIENADIAKREDMPICQDTGMTVVFVEIGQEVKIEGGYIEDAINAGVAKGYTEGYLRKSVVGEPLFNRANTKDNTPAVIHTRIVPGDKLKLKVCPKGFGSENKSVLKMLVPADGLEGVKKVFLEAVKLAGPNACPPMVIGVGIGGTMEKAAILAKKAAVRSVDSYNEHPDYAQLEKDLLEMACATGVGPQGLGGINTAVKVNIEWYPTHIAGLPVAVNINCHAARHADVTL, MGSDKIHHHHHHMRDSTQLPVTRRMLPSLYQSICLILCSQNLSGINLSGISPSSISLGPSTLFRHTRLSQRLAKFQIPRPIKHQSQRFSIFALACFVAATLSGCANSLETCARTELKLTWAEPAELQATVTILSSDEFEGRKTQTQGAAKSRDYIKQQFESLNLQPWGADFIVPFEYQTFFTQETGANVVATAMATEPTNRWRIIVAHYDHLGMSGSKIYHGADDNASGVAAMLAIAKHWQQQFALQPNTLPKVNLMFVATDAEEPGLYGSIALVEQLKTRLPEATFELMINLDMVSHPGRPYGIYLEGSRNFTQFNQFKSLLNQQNRLCIKLTHPKPVGRSIQSTDWLRASDHYPFHKANIPWLYFGVPTHPQYHTPEDTVATIDITFLAAVTESAFELLQLNAEYLKN, MGSDKIHHHHHHMREKIKLELERIEKENDVKILFAVESGSRVWGFPSKDSDYDVRFVYMHPVEWYLSIHDKRDVIEYPISDDLDISGWDIKKALQLFAKSNPALLEWIRSPIFYSKNSNFPEQLQQMSEKNFDPKATIYHYLHMASKNYREFLQGENVKLKKYFYVLRPILACKWLEEKTTLPPVEFDRLITELSIERSVLDEIEQLLIKKKAGTELDVGLKIEVLNQFLEEQIHYYQQYVKGIEKGSGIDIESLNTLFRDMLFAVYEKEHK, MGSDKIHHHHHHMRGCFSVTGVEDVCERLGVPCVPLDDPVEVSGEVFQKIKISRKVLEADKVVNLPKLKTHSQMVMTLGVKNTFGCVVGLEKSSWHMRAKNYDDFANLLIDIHRIVSPVLTILDGVEGMEGNGPTNGKKKHFGLVAVSKNAFALDDAVCKALGIDHVVYTVQHARKRRVVPDYEIVGTFHASIQLPSTVSTLDRLSRTFSRFFVKYPKIDTRKCVKCRLCEERCPASAIDISSQRIDYQKCIRCYVCHEVCPQDAIKLVRRLV, MGSDKIHHHHHHMRGRCPVSRAMMPTGPSGVEVSSVEMPGTKGVSVNLTRSLDGTVFTTLTRLSESVDMIDLVNEAVVQSLDEIAGYEAQLPSAKIATAMCFRAMQSITDYAPTTIEAADRLISNAYEIDPQPVFLAWRAYLRTFLLGESGGGNSQAISEEMERFINLAEEREPGNSIILSLAAFIRSMWLLSSEDALDLAQRSHALNPSNPYGISYLGMVHTHLGNFEEGYRLTRRANALTVPRGAKSSIRYVAMRSAACAGRYTEAIKIGEALGRDAPHFVAPKRLMGLLYMKCGRVADAEAMVETLRQHEPDYSMEKMRDAFRASPLLHRSKLGKAG, MGSDKIHHHHHHMRHLKAFYVFHITAESSSYSQAAEKLHITHGAVSKQIKLLENHLSQILFYKQGRGMCLTQEGELLKRYTDIAFNTLDSGVKQLTRESHHYLEVSCEPTLTMRWLMPRLASFFQLTGIDVRLSTAGGPVKLAESGLSLAIRRDDFHIPPEYNKHNLVSEWAGPVFSPEYWCQIQQNWGDIVLLHSDSRPSAWSDWSQRSGHNFSTNKSKSFEHFYFCLQAAVDGLGGAIGSYPLIVDDLTSGRLVAPFGFIPSGHHYVLLSHTEKLVNNELSFFNWLEDTLSLCQPKTAKAAKPV, MGSDKIHHHHHHMRHTAVLLISCPDQRGLVAAIADFLLAHRANILHADQHQDAELKLFLMRVEWDLAGFNLDLRDFATAFQPIAERFGMTWRLAESSRKPRMAVFVSKFDHCLADLLYRYQSGELHCELPIILSNHEDTRWLADAYRVPYQHMAVTKESKHETEQIQLAILRDQKIDFIVLARYMQVLSGDFIRHFPNRIINIHHSFLPAFHGAKPYHRAFERGVKLIGATAHYVTETLDDGPIIEQDVARISHRDHIDDLIHKGADLEKVVLSRAVKWHLDNRVLVYANKTVVFD, MGSDKIHHHHHHMRIDTVNVLLEALPYIKEFYGKTFVIKFGGSAMKQENAKKAFIQDIILLKYTGIKPIIVHGGGPAISQMMKDLGIEPVFKNGHRVTDEKTMEIVEMVLVGKINKEIVMNLNLHGGRAVGICGKDSKLIVAEKETKHGDIGYVGKVKKVNPEILHALIENDYIPVIAPVGIGEDGHSYNINADTAAAEIAKSLMAEKLILLTDVDGVLKDGKLISTLTPDEAEELIRDGTVTGGMIPKVECAVSAVRGGVGAVHIINGGLEHAILLEIFSRKGIGTMIKELEG, MGSDKIHHHHHHMRINPGEITKVLEEKIKSFEEKIDLEDTGKVIQVGDGIARAYGLNKVMVSELVEFVETGVKGVAFNLEEDNVGIIILGEYKDIKEGHTVRRLKRIIEVPVGEELLGRVVNPLGEPLDGKGPINAKNFRPIEIKAPGVIYRKPVDTPLQTGIKAIDSMIPIGRGQRELIIGDRQTGKTAIAIDTIINQKGQGVYCIYVAIGQKKSAIARIIDKLRQYGAMEYTTVVVASASDPASLQYIAPYAGCAMGEYFAYSGRDALVVYDDLSKHAVAYRQLSLLMRRPPGREAYPGDIFYLHSRLLERAVRLNDKLGGGSLTALPIVETQANDISAYIPTNVISITDGQIYLEPGLFYAGQRPAINVGLSVSRVGGSAQIKAMKQVAGMLRIDLAQYRELETFAQFATELDPATRAQIIRGQRLMELLKQEQYSPMPVEEQVVVLFAGVRGYLDDLPVEEVRRFEKEFLRFMHEKHQDILDDIKTKKELTSETEEKLKKAIEEFKTTFRV
